± gives the uncertainty stated by the source.
B1: Gamma-crystallin C, residues 91 to 170; numbered along this chain, P07315 (parent)
chain: RLYEREDHKGLMMELSEDCPSIQDRFHLSEIRSLHVLEGCWVLYELPNYRGRQYLLRPQEYRRCQDWGAMDAKAGSLRRV

Variants of: B1
Test: abundance fitness (aPCA) (normalised: wild type 0, dead -1); higher = more abundant; growth selection in yeast, the domain comes from the species named
Details: Homo sapiens

Abundance fitness: each site, then its substitutions
L56: G -0.928 ± 0.11 | H -0.953 ± 0.32 | I -0.515 ± 0.25 | K -0.806 ± 0.44 | M -0.553 ± 0.23 | P -0.931 ± 0.21 | R -0.836 ± 0.1 | S -0.957 ± 0.18 | T -0.636 ± 0.18 | W -0.988 ± 0.18 | Y -0.926 ± 0.35
R57: A 0.003 ± 0.078 | C -0.215 ± 0.13 | D -0.174 ± 0.14 | E -0.064 ± 0.1 | F -0.067 ± 0.23 | G -0.134 ± 0.061 | H -0.034 ± 0.1 | I -0.566 ± 0.43 | K -0.148 ± 0.24 | L -0.24 ± 0.12 | M -0.297 ± 0.097 | N 0.021 ± 0.16 | Q -0.045 ± 0.13 | S 0.018 ± 0.065 | T 0.052 ± 0.091 | V -0.14 ± 0.051 | W -0.179 ± 0.092
P58: A -0.167 ± 0.11 | C -0.334 ± 0.12 | D -0.167 ± 0.15 | F -0.882 ± 0.42 | G -0.744 ± 0.13 | H -0.587 ± 0.3 | I -0.623 ± 0.17 | K -0.15 ± 0.3 | L -0.98 ± 0.19 | N -0.268 ± 0.13 | R -0.453 ± 0.067 | S -0.202 ± 0.08 | T -0.105 ± 0.1 | V -0.378 ± 0.12
Q59: A 0.041 ± 0.1 | C -0.052 ± 0.12 | D -0.217 ± 0.3 | E -0.354 ± 0.19 | F -0.377 ± 0.14 | G 0.02 ± 0.055 | H -0.245 ± 0.1 | I -0.145 ± 0.088 | K 0.135 ± 0.11 | L -0.438 ± 0.078 | M -0.038 ± 0.12 | N -0.364 ± 0.34 | P -0.994 ± 0.23 | R -0.047 ± 0.062 | S -0.116 ± 0.06 | V -0.266 ± 0.1 | W -0.486 ± 0.073
E60: A 0.045 ± 0.06 | C -0.172 ± 0.1 | D -0.235 ± 0.19 | F -0.468 ± 0.35 | H -0.174 ± 0.095 | I -0.219 ± 0.18 | K -0.197 ± 0.18 | L -0.001 ± 0.047 | M -0.162 ± 0.13 | P -0.142 ± 0.062 | Q 0.034 ± 0.1 | R 0.006 ± 0.071 | S -0.018 ± 0.067 | T -0.081 ± 0.07 | V -0.117 ± 0.09 | W -0.206 ± 0.084 | Y -0.069 ± 0.14
Y61: A -1.04 ± 0.34 | C -0.934 ± 0.14 | G -0.925 ± 0.16 | H -0.919 ± 0.32 | I -0.808 ± 0.37 | L -0.922 ± 0.15 | M -0.964 ± 0.2 | P -1.07 ± 0.2 | R -1.06 ± 0.21 | S -0.936 ± 0.12 | T -0.529 ± 0.12 | V -1.05 ± 0.26
R62: A 0.07 ± 0.079 | D -0.619 ± 0.21 | E -0.6 ± 0.15 | F -0.086 ± 0.14 | G -0.237 ± 0.074 | M 0.195 ± 0.23 | N -0.64 ± 0.41 | P -0.196 ± 0.055 | Q -0.1 ± 0.11 | S -0.069 ± 0.066 | T -0.262 ± 0.075 | V -0.365 ± 0.093 | W -0.073 ± 0.11 | Y -0.252 ± 0.43
R63: A -0.056 ± 0.043 | C -0.15 ± 0.14 | D -0.58 ± 0.16 | E -0.234 ± 0.091 | F -0.574 ± 0.18 | H -0.167 ± 0.12 | L -0.654 ± 0.052 | M -0.32 ± 0.11 | P -1.02 ± 0.18 | Q -0.089 ± 0.05 | S -0.091 ± 0.057 | T 0.016 ± 0.076 | Y -0.23 ± 0.18
C64: A -0.144 ± 0.061 | F -0.093 ± 0.14 | G -0.597 ± 0.099 | H 0.063 ± 0.1 | L -0.841 ± 0.099 | M -0.404 ± 0.12 | P 0.014 ± 0.085 | Q -0.795 ± 0.23 | R -0.653 ± 0.073 | S -0.285 ± 0.071 | T -0.213 ± 0.25 | V -0.596 ± 0.091 | W -0.086 ± 0.17 | Y -0.116 ± 0.15
Q65: A -0.075 ± 0.049 | C -0.265 ± 0.11 | D -0.355 ± 0.2 | E -0.044 ± 0.15 | F -0.248 ± 0.15 | G -0.08 ± 0.1 | H -0.242 ± 0.2 | I -0.336 ± 0.27 | K -0.06 ± 0.12 | L -0.17 ± 0.073 | M -0.283 ± 0.12 | N -0.129 ± 0.16 | P -0.687 ± 0.089 | R -0.173 ± 0.061 | S -0.02 ± 0.059 | T -0.032 ± 0.074 | V 0.071 ± 0.11 | Y -0.149 ± 0.16
D66: A -0.313 ± 0.12 | C -0.485 ± 0.22 | E -0.083 ± 0.14 | H -0.548 ± 0.23 | L -0.518 ± 0.054 | M -0.47 ± 0.13 | P -0.879 ± 0.17 | Q -0.491 ± 0.12 | R -0.857 ± 0.14 | S -0.316 ± 0.06 | T -0.934 ± 0.29 | V -0.749 ± 0.15 | W -0.639 ± 0.18 | Y -0.603 ± 0.27
W67: A -0.944 ± 0.22 | C -0.703 ± 0.25 | E -1.07 ± 0.49 | G -1 ± 0.19 | H -0.89 ± 0.42 | K -0.827 ± 0.36
